Measurements taken from a protein production outcome set (Wang et al. 2014).

Assay: label from the status in PepcDB records
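Also: failed if final PepcDB status was selected cloned or expressed and not failed if soluble or beyond.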

| Sequence | protein production |
| --- | --- |
| MKILPFIARGTSYYLKMSVKKLVPFLVVGLMLAAGDSVYAYSRGNGSIARGDDYPAYYKNGSQEIDQWRMYSRQCTSFVAFRLSNVNGFEIPAAYGNANEWGHRARREGYRVDNTPTIGSITWSTAGTYGHVAWVSNVMGDQIEIEEYNYGYTESYNKRVIKANTMTGFIHFKDLDGGSVGNSQSSTSTGGTHYFKTKSAIKTEPLASGTVIDYYYPGEKVHYDQILEKDGYKWLSYTAYNGSYRYVQLEAVNKNPLGNSVLSSTGGTHYFKTKSAIKTEPLVSATVIDYYYPGEKVHYDQILEKDGYKWLSYTAYNGSRRYIQLEGVTSSQNYQNQSGNISSYGSHSSSTVGWKKINGSWYHFKSNGSKSTGWLKDGSSWYYLKLSGEMQTGWLKENGLWYYLGSSGAMKTGWYQVSGKWYYSYSSGALAVNTTVDGYRVNSDGERV | failed |
| MKPSQWTLRWVTLCGCGMLAASAAAVELPGTVQPSQLDERFKPRSEPQAKPEAPLVVPKQVAPQGSEQIRFKLREIRIEGNTRYDKAVLESYYQHMLGEQVSLAELVDLANRLTAKYRQDGFLLTQVVVPEQSIEGGKVRLQVIEGYLEHVQIKGTVDGPRVRVEELLAPLTEKRPLDADTLERGLLLVGDLPGVNVQSVLSPGQALGSSNLDVALQQQRYEGFVSLDNRGSHYTDPTTLAFGATEFSRLGFYEQIDVLGAISPFSDATRYIQLRGTLPLGGMFAGDTLQIMGSYSKVNPDIPDSVFPFDSVSKSTEGSISYNHPFIRSRSQNLSGGLALQWKDTETRLRDFASDASNPGRDHVRVFQQRLTYDWVDRWMGINLAEVRNNIGLDMWGATKKDDERRSREVADGRFVYLNGNIGRLQGLGGPWSVYGELQWQYSFDPLLPSERFGVGGSGIGRGFAPGNITGDRGFALKLEPRYGQAVGYSWLRSYQAYAFYDWGKTYNLDVDDDEQQKLGSIGAGVRFNLTDQLSFNPEIARQVIGEPADQRDGKRETRVLFNVVARF | failed |
| NQLSGLHSMEEQLAKKLQIKKCLVVQGDSDDTPWVREEMGRVAVEQLDMALTEKRNIVAVMGGSTMATVAEMMTTDFAKGRELLFVPGRGGIGEDLDNQANTICDKMATKTNTKHRVLYVPEQLGEEAYRSLLKEPAIQEGLRLVQSANAIILGIGDALAMAKRRHTGEDVLEKIIRRKAVGEAFGYYFDEQGEVVHKVPTFGLQFEDLAQIPHIIAVAGGTSKAKAIKSYMKSAPKNTILITDEGAAKSLLK | not failed |
| MVVYGKQKYIMKRCFYMNKKLKTEAVDHLFQAILTLKSTEECYSFFEDVCTVNELLSFSQRYEVAKMLREKRTYLEIADKTGASTATISRVNRSLNYGNDGYDMVFKRLEDQAAEDNEA | failed |
| MPFWLEVVINVAFSYLASVGFALTINVPHRALNLSGISGTVGWMAYWFCFRLGAGRMASNLIGAFLIGILGLVFARIKKCPVTVFNIPALVPLVPGMPAYQAVRAFVVGDYIQGQELILRVAIVTGAIGLGFLLSTMCTEAFYKIRYRHFRNTGLYFKRKK | failed |
| MEVKKVLVSAFLLTTCLMSGQAQRRNEIQVPDLDGYTTLKCDFHMHSVFSDGLVWPTVRVDEAYRDGLDAISLTEHIEYRPHKQDVVSDHNRSFDLCREQAEKLGILLIKGSEITRAMAPGHFNAIFLSDSNPLEQKDYKDAFREAKKQGAFMFWNHPGWDSQQPDTTKWWPEHTALYQEGCMHGIEVANGHLYMPEAIQWCLDKNLTMIGTSDIHQPIQTDYDFEKGEHRTMTFVFAKERSLQGIREALDNRRTAAYFHELLIGREDLLRPFFEKCVKIEEVSRNEQGVTLSITNVTDLVLKLKKTAHDTLLVYFRDMTLKPHTRYTVRIGFKQGIKGGDVNFEVTNFIVAPDKGLKYTISL | failed |
| MGAVTDDEVIRKRLLIDGDGAGDDRRINLLVKSFIKWCNSGSQEEGYSQYQRMLSTLSQCEFSMGKTLLVYDMNLREMENYEKIYKEIECSIAGAHEKIAECKKQILQAKRIRKNRQEYDALAKVIQHHPDRHETLKELEALGKELEHLSHIKESVEDKLELRRKQFHVLLSTIHELQQTLENDEKLSEVEEAQEASMETDPKP | failed |
| MRVGIKVLGCPKNEADCEVLAGVLREGGHEIVFDVKDADVVVLDTCAFIEDAKRESIDEIFSFVDAKDQYGYKLVVKGCLVQRYYEELKKEIPEVDQWIGVADPEEIANAIENGTDLVPDQPETVYRYRKRIDLEERPYAYVKISDGCDRGCTFCSIPSFKGSLRSRSIEDITREVEDLLKEGKKEIILVAQDTTSYGIDLYRKQALPDLLRRLNSLNGEFWIRVMYLHPDHLTEEIISAMLELDKVVKYFDVPVQHGSDKILKLMGRTKSSEELKKMLSSIRERFPDAVLRTSIIVGFPGETEEDFEELKQFVEEIQFDKLGAFVYSDEEGTVAFNLKEKVDPEMAKRRQEELLLLQAEISNSRLDRFVGKKLKFLVEGKEGKFLVGRTWTEAPEVDGVVFVRGKGKIGDFLEVVIKEHDEYDMWGSVILEHHHHHH | not failed |
| MNFPLVLLILLVVTGGIWLLDYFVLRHKRVSGNTEEPWWVEYPKSFFPIILIVFSLRSFLVEPFKIPSGSMIPTLLIGDFILVNKYTYGIRLPVANLKIIDMNEPQRGEVMVFRFPEDPSIDYIKRVIGVPGDMVTYRNKQLSINDVPVQLEQGGDYKYIDGPAYIYTQRFKENMDGSEHDILINEDMPDIQLSAIHHFPNRENCTFDRTGFSCKVPEGNYFTLGDNRDGSSDSRYWGFVPENHIVGKAFLIWWNFNDLSRIGTLIK | failed |
| MLTPVADGVLVHQSELLRNNTVVVRGESGVLIVDPGLTTGEMGCLAEDLRQLGQPVVAGFATHPDWDHALWHADLGDVPRYGTARCSAYLRELRSEEGWQARVAEGLPPEIADETPLELFGLIVGLPAGAELIPWNGPEVRVIEHPAHAPGHAALLVEDRGVLVAGDMLSDLFVPMLDDTEHPVEDYLTGLRLLEKVADDVEVLVPGHGSVATADQVQVRIGRDREYLHALRDGRAPDDPRLGSSVEPGWEWVNDIHEGQAARMARRSERNGADG | failed |
| EPLTIREYRPEDLEALLPLYEQLGYPTRTDELRDRLAGLLSHEDYHLLVAECDGQLVAFIGYARMYFFEHDGSYYRILALAVS | failed |
| MGNQLAIQMNSDEDDDFDSSDNELGFNVINFTVNAMDLRSDYCSSEMPVIRGKPDLVKFQKTDMYKEIQASSGLVSNPNNRWNLVHALQQRENGLASPHSASFSKNQQRYISNLYIPNKKATRLMSLESKIFVTKFNRSGSKLLTACQDGFVRIYDGAKGTYHLLNRIRARDVEWSIIDADFSPNGEHFAYSTWSRSLFIMPVNGGEDDCQWIDVNGLPSHRLAIFSLRYSPTGDKIIGGSNNSTVIVTDIRTRNTQILRTHRMPGKDVNSVCFLHDKDPNVIIAGCDDGLLKVYDLRTTFRSRDLSKSVASFIGHYDGITYIDSRNDGYHVLSNSKDQSIKIWDIRQPSNMRNRSRSRQQVDPTTWDYRWNRVPREFYNPHKPLEGDSSIMTYRGHRVTKTLLRAKFSPMEQTGQRYIYTGCATGRIIIYDVLTGKIQEAIEGHRTVIRDLDWHPDRSEIVSGSWDTHVHLNNFSRSNANRPVKRSHSSDHDKKPLRRSRRLANRNVTPD | failed |
| MIIPDLFRLNDWSTRRFNLFIWSILVAYDFSFISNVPLYSIEILSKILGFVILTFIPGYIILRIFKVHDIDRVVTLLLAIGLSLSFIMIFGFTVNMFLPYIGVSKPISTFPLFYSLNISILVLMIIYYFRDKKFNSSQNQLRITFSPMLFYFILLPLFSILGTESVNHYNFNMPVLILLFVISLSPILIALDRISRDLYPFMILSISLAILYNMNLISTHLWSYDIFYEAHTSKYVLENGIWNPGNKTMVPLLLFTILSPVYSLICDLNVIWVFKIIFPFFFSLTPLALYYVYKELDFGNYKIDSEIAMLSVFVFIFFYGFYKDMPDKQHIAELFLALILILSIFNTQKRILLFIFSFSLVVSHYGISYFFVFSLIFVSMMSRFRVNADTSFLTPTYTLLFSVLTFSWYIYISAGDVFEVITQVGYHFLSGIKDIFQANNDGRSASAYLSYLSNGILWVIYMLIHLILQFFIFIGVLNLLLSIMHNKTKSFEIALLTIIFYAFLFVQFFKTYGMGLDRILQITLILLSPLSIWGYSFCVKNLNSVYARIISKRIYRNKENGNLNLIFESTLTRNEAINKNHITNLSKKARLCFSIFLMIFFVFNSGFIFWMTGYPLPGYCININPNSGWPVYSESEICGVDWLKSHENEHNRIAVFNQWDTIKSRDGLLVAENFYSKDLIPIQTNTTTLYNSYLFLGKYSVDKVEDGEEDVDLQDTLFYNSTLKNSNKIYNSEKSHLYLAE | failed |
